{"source": "paper PMC10877131", "about": "(JHEP Reports, 2024)", "proteins": {"B1": {"name": "Thrombospondin-2 (THBS2), overexpressed in LX-2 cells, in conditioned media (natural protein)", "chain": "not shown"}}, "target": "the molecule itself", "test": "immunoblot"}
{"protein": "B1", "values": [{"measurement": "stoichiometry N", "value": 2}]}
